Source: paper PMC7610992 (Journal of molecular biology, 2006)

T1: RNA helicase B (RhlB), full-length helicase (E. coli, UniProt P0A8J8 1-421)
T1 sequence (looked up): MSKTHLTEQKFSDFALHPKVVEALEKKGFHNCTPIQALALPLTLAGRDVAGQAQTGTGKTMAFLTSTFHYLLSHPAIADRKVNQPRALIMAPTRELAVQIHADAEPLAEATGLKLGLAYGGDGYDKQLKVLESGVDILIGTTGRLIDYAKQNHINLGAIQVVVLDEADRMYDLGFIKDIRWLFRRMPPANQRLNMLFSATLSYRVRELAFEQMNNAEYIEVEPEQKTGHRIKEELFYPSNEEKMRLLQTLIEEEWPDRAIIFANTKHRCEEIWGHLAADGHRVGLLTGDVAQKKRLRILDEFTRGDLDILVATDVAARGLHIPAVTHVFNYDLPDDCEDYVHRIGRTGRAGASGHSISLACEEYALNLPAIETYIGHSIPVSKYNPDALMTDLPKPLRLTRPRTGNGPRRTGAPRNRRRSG

B1: RhlB-CTD, carboxy-terminal domain of RhlB helicase (domain or fragment, E. coli)
chain: MRIKEELFYPSNEEKMRLLQTLIEEEWPDRAIIFANTKHRCEEIWGHLAADGHRVGLLTGDVAQKKRLRILDEFTRGDLDILVATDVAARGLHIPAVTHVFNYDLPDDCEDYVHRIGRTGRAGASGHSISLACEEYALNLPAIETYIGHSIPVSKYNPDALMTDLPKPLRLTRPRTGNGPRRTGAPRNRRRSG
B2: RNase E (628-843) (domain or fragment, E. coli, UniProt P21513 628-843, looked up)
chain: ERTEGSDNREENRRNRRQAQQQTAETRESRQQAEVTEKARTADEQQAPRRERSRRRNDDKRQAQQEAKALNVEEQSVQETEQEERVRPVQPRRKQRQLNQKVRYEQSVAEEAVVAPVVEETVAAEPIVQEAPAPRTELVKVPLPVVAQTAPEQQEENNADNRDNGGMPRRSRRSPRHLRVSGQRRRRYRDERYPTQSPMPLTVACASPELASGKVW

Legend:
RNase E (628-843) = target: B2; assay: SEC + cross-linking + native MS
[1] = target: T1, RNA helicase B (RhlB), full-length …; assay: limited proteolysis with native gel and mass spectrometry

Row | stoichiometry N (RNase E (628-843)) | binding result [1] | Binder
1 | 1 RhlB-CTD per RNase E (628-843) |  | B1
2 |  | binds | B2
